Results: PMC4449276

Molecular target: chaperonin-containing TCP-1 (CCT), bovine (bovine) (UniProt Q32L40)
Test: native gel or EMSA

percent of the CCT binding of Hsc70 | percent of the wild-type CCT binding | Substance
64% | – | DnaK_(Hsc70-185–190) (DnaK with T185GNRTI190 exchanged by Hsc70 V189GAERNV195) (from UniProt P0A6Y8 1-638) (natural protein)
– | 18% | Hsc70ΔC_(DnaK189–192) (Hsc70ΔC with V189GAE192 changed to DnaK T185GN187) (from UniProt P19120 1-554) (domain or fragment)
– | 6% | Hsc70ΔC_(DnaK189–195) (Hsc70ΔC with V189GAERNV195 substituted with DnaK TGNRTI) (from UniProt P19120 1-554) (domain or fragment)
